Test results: the supplement of paper PMC12042874
± gives the uncertainty stated by the source.

Test: amyloid nucleation score (Sup35N fusion, yeast selection) (log enrichment); library NNK1; higher = more nucleation; inactive = no reads after selection
Outline: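 The nucleation score is the DiMSum log enrichment of output over input reads, centred on the mode score of non-aggregating sequences. Only sequences with 100 or more input reads were scored, using Illumina sequencing of input and output plasmid inserts. Psi-negative yeast expressing Sup35N fused to peptides of 20 random codons were induced 24 hours with 100 μM copper sulfate and grown 7 days at 30°C on medium lacking adenine and uracil.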

Row | Substance | amyloid nucleation score
1 | LSLGLSGLVQPSDGTVG | -0.284 ± 0.7
2 | LSLRDLGSLALRGLKMNATR | -0.397 ± 0.91
3 | LSMRIQAQMIVAWPTKHPIL | 4.99 ± 0.12
4 | LSMSCENFHLTQSSEGCSRV | 0.19 ± 0.51
5 | LSNRSKNDGKSRLIPMDDVH | inactive
6 | LSRPVDNSCLESMRRVDWTH | -0.444 ± 1.2
7 | LSRTKGKAQCLGQVGRMRVL | 0.294 ± 0.54
8 | LSRTSKSPFGGEFLERHIYI | -0.42 ± 1
9 | LSSNSYQDVSVCQGFLFFVA | 3.36 ± 0.15
10 | LSSVNGVLGRIGHLVAPSSF | -0.066 ± 1
11 | LSTMRLGHYCLAYCRLGCLY | 0.827 ± 0.41
12 | LSVNWFGCTWQNHKEGIGRN | 1.79 ± 0.12
13 | LSVSFDVDVMVMIQVNCAIH | 0.105 ± 0.39
14 | LSVVVDRVLDNCLIGLYNAG | 0.174 ± 0.28
15 | LTASLTAGVTRWVLRRFVYH | 0.588 ± 0.77
16 | LTCEFRGTRPMMYASDPLFY | 1.14 ± 0.76
17 | LTFNPLTGCNNSQWFDGISG | -1.23 ± 2.1
18 | LTILCWWLYEIRR | 0.556 ± 0.55
19 | LTLALESLEPIRLTRNMWAL | -0.411 ± 0.65
20 | LTLFEPLMRDCYICSYFNFF | 7.047 ± 0.053
21 | LTLFLCISRLPGTPTLYWVL | 0.752 ± 0.62
22 | LTLKTSNHFIYLSLLYIRVV | -0.03 ± 0.3
23 | LTSGLI | 0.807 ± 1
24 | LTYLMWRRYSNIFQTSCSCL | 0.499 ± 0.59
25 | LVAYVTRRFVLCM | -1.42 ± 1.8

Row | Substance | amyloid nucleation score
26 | LVENLWTLRRRLVGALF | 0.31 ± 0.4
27 | LVEVNWI | -0.412 ± 0.47
28 | LVFCVLMW | 0.532 ± 0.16
29 | LVFFHISR | 4.94 ± 0.1
30 | LVFSRYYRCLFTIDF | 3.62 ± 0.11
31 | LVFVTWLSMHVNTTGVFSLS | 0.242 ± 0.41
32 | LVITIDARRVAVTLIYMKMR | 2.37 ± 0.15
33 | LVLGSSLWAGCCDQPHGWQV | -0.211 ± 0.54
34 | LVLHNVDELYINSSHF | 0.77 ± 0.5
35 | LVMFEIKLMRFNFTMRSVRR | 2.91 ± 0.13
36 | LVMMTDIANWRLPCYFSNLW | 0.201 ± 0.54
37 | LVPVITWK | 4.3 ± 0.13
38 | LVSDSYNSLSLQDNLALLLI | 0.261 ± 0.4
39 | LVSQTYNMVARLRSSLARVN | 0.243 ± 0.78
40 | LVVAVW | 0.269 ± 0.35
41 | LVWILHVSSVNNHVDWGMLE | -1.64 ± 2.4
42 | LVWVS | 0.134 ± 0.65
43 | LVYRCASRRVSNSFMLCW | -0.542 ± 0.62
44 | LWGRFYIYHSLFHRSHHVKL | -0.284 ± 1
45 | LWHEI | 0.427 ± 0.51
46 | LWLTHKCYCLDSNTCIKCEL | -0.312 ± 0.38
47 | LWLTPTQCMTHNFPLLTPRR | -0.354 ± 0.47
48 | LWLWHELHAIYMGMRGVSVL | inactive
49 | LWPDTDPIGGE | -0.74 ± 1.1
50 | LWPKVLMVFTSM | 1.67 ± 0.15

Row | Substance | amyloid nucleation score
51 | LWRLEWLLSGQRGTSPAVRV | 0.764 ± 0.55
52 | LWSPSQ | 0.202 ± 0.56
53 | LWTFGDRSVWLDDSMRWVPR | -0.145 ± 1.1
54 | LWVFRCARLKVWQPRKGWGQ | 0.844 ± 0.48
55 | LWVFS | 0.762 ± 0.7
56 | LWWFEYRL | -0.016 ± 0.32
57 | LWWLHGDLLLSWGFRMLWPL | 0.117 ± 0.78
58 | LYAWGVRYSVVMLFSYRGVH | -0.026 ± 1.2
59 | LYCRNRCRACCKRFTFK | inactive
60 | LYFVCIFPYRVRTECSEQSR | 4.32 ± 0.095
61 | LYGLLAGIMSCHWLSWIACK | -0.96 ± 2.7
62 | LYGSRPYSTTKTY | -0.11 ± 0.33
63 | LYHRGVFELCS | 0.596 ± 0.34
64 | LYKLWQSKFTVYWLEGLTSY | inactive
65 | LYLYM | 0.959 ± 0.34
66 | LYTLRLGI | -0.134 ± 0.84
67 | LYVDGGPCPTAELGQRSYEK | -0.17 ± 0.42
68 | LYVDH | inactive
69 | LYVPCAIVGSLTRG | 1.06 ± 0.66
70 | LYYDSRASFPCISLEIERYV | -0.083 ± 0.33
71 | MAKSGNEI | 0.062 ± 0.79
72 | MCASASTSKMLVWVWTPYFG | 2.14 ± 0.13
73 | MCGDIPQ | 0.35 ± 0.74
74 | MCGQLV | -0.447 ± 0.74
75 | MCNVGTVRAYSLIQGGIRQC | 0.373 ± 0.34

Row | Substance | amyloid nucleation score
76 | MCVGRDISGEWSYYQCMVEL | 0.495 ± 0.28
77 | MCVILVELYQRGSWYTRKVM | -0.206 ± 1.1
78 | MCVLYMGGSFRF | 1.58 ± 0.44
79 | MCWPTDAEDAICTSLK | 2.12 ± 0.11
80 | MDKLMSMELLSFLGNRSVHV | inactive
81 | MDSFVITSFSYNTSLTMRIL | 1.4 ± 0.42
82 | MDWYIVYRPAYTLLCRIHVR | 1.16 ± 0.39
83 | MECSASYLYVWKIANTLGRM | 0.637 ± 0.31
84 | MEFNMWYLFGDLLVTLDWPK | 0.044 ± 0.45
85 | MEHYLACIWITHVCF | 0.117 ± 1.1
86 | MEPFSAC | -0.276 ± 1.9
87 | MFFGWLFHYLLSSTYMFVSL | -0.266 ± 0.72
88 | MFFSCGVLTILNWIKLKMAR | -0.839 ± 1.1
89 | MFGAHLA | inactive
90 | MFGGYRSC | 0.159 ± 1.2
91 | MFIVYRMDLEFM | 1.64 ± 0.51
92 | MFLYLLVVTP | inactive
93 | MFRRFSWGR | -0.198 ± 0.44
94 | MFRWHVLGKKITP | -0.067 ± 0.37
95 | MFTNLQIWWDSMACYFWDVF | 0.923 ± 0.48
96 | MFVGGRTNTQMYHMDVVPFQ | 1.13 ± 0.63
97 | MGCLN | 0.082 ± 0.62
98 | MGGWNGNGIFCAYIYM | 0.344 ± 0.15
99 | MGKNMVANWILHHRHSQ | -0.343 ± 0.46
100 | MGTRILSRTFVVYTTPGYCW | 0.093 ± 0.27

Row | Substance | amyloid nucleation score
101 | MGTSITI | -0.202 ± 0.84
102 | MGVVRLAS | -0.149 ± 0.27
103 | MHLCINWSLSCRAADQFMRR | 3.53 ± 0.17
104 | MHPAVVYCPLIK | 0.735 ± 0.64
105 | MHTKRTTDNKYGSY | -0.208 ± 0.38
106 | MIMMDLHCGVILRALGEHGP | 3.34 ± 0.11
107 | MIRGLPQMMNWVP | 0.758 ± 0.38
108 | MIWPDGQRLMRPTLRMYKTS | 0.279 ± 0.36
109 | MIWVWNRYIIPYFRFCGATL | 0.268 ± 1.2
110 | MKDVILRTWYLRQGEGWGAS | 0.026 ± 0.4
111 | MKLWMEMRWGRG | 5.41 ± 0.064
112 | MKVDNSVLMPATTHQRNMQG | -0.211 ± 0.67
113 | MLEGMRRWNNIALVVIRGVG | -0.556 ± 1.1
114 | MLGCVGSCTR | -1.08 ± 1.1
115 | MLLACPHLTGYGVILIASIA | -0.292 ± 0.36
116 | MLLALVIEADRRRWSVNGMY | 2.93 ± 0.18
117 | MLLSWMNAMVFTRRVHLAEP | -0.469 ± 1.2
118 | MLLWQRSGMQLLAGLSHRVR | -0.702 ± 0.99
119 | MLQFFVSWGILVKICVWTVG | inactive
120 | MLSVRTGISGLQSVRTKALA | -0.33 ± 0.51
121 | MLSYVRIGSDQDVVWSDLQR | 2 ± 0.1
122 | MLTRLHVSLSCHFYLWRSL | 0.838 ± 0.56
123 | MLVCDWKTDLGNI | 0.811 ± 0.64
124 | MLVRG | -0.351 ± 0.49
125 | MMAFCS | 0.264 ± 0.39

Row | Substance | amyloid nucleation score
126 | MMAFDRRCLGFPMNVGYD | 1.07 ± 0.46
127 | MMDVV | -0.756 ± 0.58
128 | MMFAKDSI | 0.372 ± 0.47
129 | MMGIMYLWTWYCN | 0.385 ± 0.58
130 | MMGLY | -0.038 ± 0.32
131 | MMGNNQRSPYDMDREASITF | 0.64 ± 0.43
132 | MMPVRWHMFDAWDLWIDLER | -0.456 ± 0.88
133 | MMTGFNNIPTIKQLGSCAHY | 0.291 ± 0.97
134 | MMWLCAVFPGIRFYGYPGLN | -1.88 ± 2.7
135 | MNALGSTYWDQQSAQQSMWS | 4.92 ± 0.068
136 | MNCLTSRILNVLIGSGCN | 3.33 ± 0.076
137 | MNFCYLCTTWWSYYFQ | -0.38 ± 0.32
138 | MNLSVSVPVHTRLDMMFM | 5.616 ± 0.049
139 | MNLSYSTIVIYHRNEDCNVY | 4.08 ± 0.094
140 | MNPTFILRTGSRGGDYWS | 0.206 ± 0.52
141 | MNSVGAGWFGLRCNYRAHEA | 0.252 ± 1.1
142 | MNTSVAWMVR | -0.149 ± 0.32
143 | MNVVILEAYGRSPIGMQAFF | 2.59 ± 0.18
144 | MPGSTLLSAKMTSLGGTALW | 0.392 ± 0.4
145 | MPKRSKHFVNWVVNA | -0.265 ± 0.29
146 | MPTLNYIVKCSREVTGGILD | inactive
147 | MQVVVYKYLTMYQR | 1.29 ± 0.76
148 | MQWPYCGMTFCYTW | -0.047 ± 0.57
149 | MRAFGVNGTVQRWWGSCSRF | 0.766 ± 0.46
150 | MREDIAFDFW | 4.22 ± 0.15

Row | Substance | amyloid nucleation score
151 | MRGMADYC | -0.251 ± 0.88
152 | MRIPVRLVV | 0.027 ± 0.54
153 | MRIRAKSALSVSLECDLQFL | 0.655 ± 0.3
154 | MRTVIITCCRTFECPMERCS | -2.56 ± 1.4
155 | MRYIKSVVSSVCSYNLPLRA | 0.525 ± 0.44
156 | MSEFADTIMIVNGCGWRVVR | -0.039 ± 0.26
157 | MSHWTMGREWITHLFSGHWG | 0.945 ± 1.1
158 | MSMVNKTSWCYLFCNLRVVY | -1.08 ± 0.86
159 | MSNIVALHCGSFFTDYECIW | 7.608 ± 0.046
160 | MSRIVF | -0.003 ± 0.71
161 | MSRMFRVLHRVLSSW | -0.538 ± 1.2
162 | MSSESLSMGRLDMG | inactive
163 | MSSLIVYLRDAPRVLNLYVR | 2.5 ± 0.17
164 | MTFVMHIAWG | 1.55 ± 0.26
165 | MTGINYRAVRCAEGCRASRR | 0.216 ± 0.29
166 | MTHAFLRWSYLFRNIWMHVF | 0.349 ± 1.2
167 | MTHLNPMSFVDPKFVPVDFS | 2.48 ± 0.47
168 | MTSCDWTTTKSSDVAPDWRM | 0.424 ± 0.52
169 | MVHCRQI | 0.219 ± 0.32
170 | MVLFKELIMVFTQARAS | 0.156 ± 0.28
171 | MVQAPLTSQPYNNGMVRQK | -0.055 ± 0.5
172 | MVRWLNTSRKFT | 1.06 ± 0.73
173 | MWCLGLDIFRIRVYRCAGGG | -0.348 ± 0.28
174 | MWEALW | 0.601 ± 0.54
